Test results from US20060167229A1, “Biologically active peptide conjugates” (priority 2002, published 2006).
Where “and” joins values, the source holds several entries; their conditions need not be identical. Identical values can stand only once.

Key:
thymus gland = assay: Immunity organ weight test, thymus gland index; assay type: in vivo, BALB/c mice; settings: healthy mice, saline 0.12 ± 0.02
Method: One day after the last test substance administration (day 16), the liver, spleen, and thymus gland were separated and blotted dry with filter paper and weighed. The phagocytosis index α was calculated as below: α=(^3√{square root over ( )}K)(W÷WLS)
Thymus gland index (%)=(thymus weight/body weight)×100%

mononuclear phagocyte = assay: Carbon particle clearance test, phagocytosis function; assay type: in vivo, BALB/c mice; design: key to X ± SD (phagocytotic index): α = cube root of K × (body weight ÷ liver+spleen weight); settings: healthy mice, saline 5.1 ± 0.6
Method in brief: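 Clearance index K came from OD680 of blood sampled 1 and 5 min after tail-vein India ink ([…], diluted 5×), given on day 16. Phagocytic index α combined K with liver, spleen […] weights taken the same day.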

interferon (IFN) = tested on: interferon (IFN); design: species or system BALB/c mice; settings: mouse, in vivo, ip
NK cell = NK cell cytotoxicity activity test (spleen cells of treated mice against YAC-1 target cells, MTT); assay type: in vivo, BALB/c mice; settings: healthy mice
Method in brief: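 YAC-1 target cells (1×10^5/ml) mixed with splenocytes (4×10^6/ml) from mice given test substances i.p. daily for 15 days (10 mice/group). Effector-only and target-only wells served as controls. MTT added at 1 mg/ml for 4 h at 37 °C; absorbance read at 570/630 nm.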

anti-SRBC antibody = assay: Sheep Red Blood Cell (SRBC) hemolysis test, antibody formation; assay type: in vivo, BALB/c mice; settings: healthy mice, SRBC day 12 (IFN-γ, IL-2 3×10^5 IU/kg/day), saline 32 ± 7
Method in brief: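 Antibody formation was read as haemolysis: 500-fold diluted serum, collected on day 16 after intraperitoneal SRBC (0.2 ml, day 12), was mixed with 2% SRBC plus complement for 10 min at 37° C. Supernatant haemoglobin measured with Drabkin reagent at OD540, indexed against a reference SRBC lysate ×500.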

[1] = peptide 0.5 μg/kg/day i.p. 15 days (IFN-γ, IL-2 3×10^5 IU/kg/day)
[2] = peptide 5 μg/kg/day i.p. 15 days (IFN-γ, IL-2 3×10^5 IU/kg/day)
[3] = peptide 50 μg/kg/day i.p. 15 days (IFN-γ, IL-2 3×10^5 IU/kg/day)
[4] = peptide 500 μg/kg/day i.p. 15 days (IFN-γ, IL-2 3×10^5 IU/kg/day)

B1: IFN-γ: recombinant mouse IFN-γ (rmIFN-γ), Beijing Biotech Inc.; positive control (protein, UniProt P01580 23-155, looked up)
Interferon gamma: HGTVIESLESLNNYFNSSGIDVEEKSLFLDIWRNWQKDGDMKILQSQIISFYLRLFEVLKDNQAISNNISVIESHLITTFFSNSKAKKDAFMSIAKFEVNNPQVQRQAFNELIRVVHQLLPESSLRKRKRSRC
weight of thymus gland (thymus gland index), X ± SD (%) (thymus gland; [1]): 0.15 ± 0.04% | weight of thymus gland (thymus gland index), X ± SD (%) (thymus gland; [2]): 0.15 ± 0.04% | weight of thymus gland (thymus gland index), X ± SD (%) (thymus gland; [3]): 0.15 ± 0.04% | weight of thymus gland (thymus gland index), X ± SD (%) (thymus gland; [4]): 0.15 ± 0.04% | X ± SD (phagocytotic index) (mononuclear phagocyte; [1]): 6.4 ± 0.9 | X ± SD (phagocytotic index) (mononuclear phagocyte; [2]): 6.4 ± 0.9 | X ± SD (phagocytotic index) (mononuclear phagocyte; [3]): 6.4 ± 0.9 | X ± SD (phagocytotic index) (mononuclear phagocyte; [4]): 6.4 ± 0.9 | activity of T lymphocyte in secreting IFN, X ± SD (IU) (interferon (IFN)): 139 ± 16 IU and 125 ± 18 IU and 124 ± 16 IU | NK cell cytotoxic activity, X ± SD (%) (NK cell; peptide 0.5 μg/kg/day i.p. 15 days (IFN-γ, IL-2 3×10^5 IU/kg/day), saline 58 ± 7): 72 ± 9 % | NK cell cytotoxic activity, X ± SD (%) (NK cell; peptide 5 μg/kg/day i.p. 15 days (IFN-γ, IL-2 3×10^5 IU/kg/day), saline 60 ± 9): 80 ± 8 % | NK cell cytotoxic activity, X ± SD (%) (NK cell; peptide 50 μg/kg/day i.p. 15 days (IFN-γ, IL-2 3×10^5 IU/kg/day), saline 56 ± 8): 73 ± 10 % | NK cell cytotoxic activity, X ± SD (%) (NK cell; peptide 500 μg/kg/day i.p. 15 days (IFN-γ, IL-2 3×10^5 IU/kg/day), saline 63 ± 9): 77 ± 8 % | anti-SRBC antibody formation, X ± SD (Unit) (anti-SRBC antibody; peptide 0.5 μg/kg/day i.p. 15 days): 37 ± 10 Unit | anti-SRBC antibody formation, X ± SD (Unit) (anti-SRBC antibody; peptide 5 μg/kg/day i.p. 15 days): 37 ± 10 Unit | anti-SRBC antibody formation, X ± SD (Unit) (anti-SRBC antibody; peptide 50 μg/kg/day i.p. 15 days): 37 ± 10 Unit | anti-SRBC antibody formation, X ± SD (Unit) (anti-SRBC antibody; peptide 500 μg/kg/day i.p. 15 days): 37 ± 10 Unit
